We go through two molecules from US20110104176A1 (SAMSUNG ELECTRONICS, published 2011).

Experiment [1] addresses human c-Met/Fc fusion protein (R&D Systems) (human) (UniProt P08581). The experiment in a line: ELISA, c-Met/Fc coated at 2 ug/ml, goat anti-mouse IgG-HRP, OPD. (In general: An ELISA detects its analyte on a solid surface through an enzyme-linked reagent.)
In experiment [2] the target is mouse c-Met/Fc fusion protein (R&D Systems) (mouse) (UniProt P16056). The experiment is described as above.
Chain of mouse c-Met/Fc fusion protein (R&D Systems) (mouse) (P16056 25-931 limits assumed): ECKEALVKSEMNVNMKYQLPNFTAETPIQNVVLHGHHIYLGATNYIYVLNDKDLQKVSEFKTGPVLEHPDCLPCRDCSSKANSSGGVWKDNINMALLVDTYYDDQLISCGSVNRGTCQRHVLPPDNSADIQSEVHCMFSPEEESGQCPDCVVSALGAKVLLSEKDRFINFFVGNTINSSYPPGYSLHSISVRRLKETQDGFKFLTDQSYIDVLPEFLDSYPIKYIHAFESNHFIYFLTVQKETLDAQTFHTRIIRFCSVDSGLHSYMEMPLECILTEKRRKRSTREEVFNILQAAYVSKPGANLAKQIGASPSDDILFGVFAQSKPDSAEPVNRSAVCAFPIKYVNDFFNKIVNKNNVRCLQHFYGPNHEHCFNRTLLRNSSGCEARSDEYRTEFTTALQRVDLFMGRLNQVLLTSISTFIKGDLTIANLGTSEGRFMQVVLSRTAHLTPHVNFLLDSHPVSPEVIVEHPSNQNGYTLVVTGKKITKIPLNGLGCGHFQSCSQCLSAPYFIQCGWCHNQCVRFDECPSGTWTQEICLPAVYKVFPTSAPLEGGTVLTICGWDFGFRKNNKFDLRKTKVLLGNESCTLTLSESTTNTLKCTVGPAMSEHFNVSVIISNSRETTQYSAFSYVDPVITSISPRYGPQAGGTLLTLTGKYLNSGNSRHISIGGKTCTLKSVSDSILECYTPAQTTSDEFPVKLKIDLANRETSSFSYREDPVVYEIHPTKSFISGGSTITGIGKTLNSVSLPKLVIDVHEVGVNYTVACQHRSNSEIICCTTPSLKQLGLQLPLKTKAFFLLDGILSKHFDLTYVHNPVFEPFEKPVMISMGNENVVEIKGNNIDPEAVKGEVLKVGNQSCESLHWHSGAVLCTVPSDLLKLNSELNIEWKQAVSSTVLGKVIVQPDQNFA
The target of experiment [3] is T1, human c-Met protein (immobilized on a CM5 chip) (human, UniProt P08581 25-932, limits assumed). The experiment can be described thus: SPR (Biacore), human c-Met immobilized on a CM5 chip, antibody in flow. How it is done:
(§1) A surface plasmon resonance (SPR) device (Biacore) was used to measure the binding affinity of the monoclonal antibody AbF46 prepared in Example 1 to human c-Met protein. The human c-Met protein was first immobilized on a CM5 chip, and the monoclonal antibody AbF46 was allowed to flow into a microfluidic chamber to obtain kₐ (on) and kb (off) values as illustrated in FIG. 2. Then, the Kd value was calculated from the kₐ and kb values. […] In addition, the Chi² value, which represents the reliability of the experiment, was 0.822 (in a Biacore analysis method, a Chi² value of 1 or less indicates high reliability of the data).
In general terms: In SPR one partner is held on a chip, and binding of the other changes the refractive index at the surface.

Experiment [4] concerns the target T1, human c-Met protein (immobilized on a …). The experiment can be described thus: SPR (Biacore), human c-Met immobilized on a CM5 chip, AbF46 flowed over. Here is the method: as §1

T1 sequence (P08581 25-932 limits assumed): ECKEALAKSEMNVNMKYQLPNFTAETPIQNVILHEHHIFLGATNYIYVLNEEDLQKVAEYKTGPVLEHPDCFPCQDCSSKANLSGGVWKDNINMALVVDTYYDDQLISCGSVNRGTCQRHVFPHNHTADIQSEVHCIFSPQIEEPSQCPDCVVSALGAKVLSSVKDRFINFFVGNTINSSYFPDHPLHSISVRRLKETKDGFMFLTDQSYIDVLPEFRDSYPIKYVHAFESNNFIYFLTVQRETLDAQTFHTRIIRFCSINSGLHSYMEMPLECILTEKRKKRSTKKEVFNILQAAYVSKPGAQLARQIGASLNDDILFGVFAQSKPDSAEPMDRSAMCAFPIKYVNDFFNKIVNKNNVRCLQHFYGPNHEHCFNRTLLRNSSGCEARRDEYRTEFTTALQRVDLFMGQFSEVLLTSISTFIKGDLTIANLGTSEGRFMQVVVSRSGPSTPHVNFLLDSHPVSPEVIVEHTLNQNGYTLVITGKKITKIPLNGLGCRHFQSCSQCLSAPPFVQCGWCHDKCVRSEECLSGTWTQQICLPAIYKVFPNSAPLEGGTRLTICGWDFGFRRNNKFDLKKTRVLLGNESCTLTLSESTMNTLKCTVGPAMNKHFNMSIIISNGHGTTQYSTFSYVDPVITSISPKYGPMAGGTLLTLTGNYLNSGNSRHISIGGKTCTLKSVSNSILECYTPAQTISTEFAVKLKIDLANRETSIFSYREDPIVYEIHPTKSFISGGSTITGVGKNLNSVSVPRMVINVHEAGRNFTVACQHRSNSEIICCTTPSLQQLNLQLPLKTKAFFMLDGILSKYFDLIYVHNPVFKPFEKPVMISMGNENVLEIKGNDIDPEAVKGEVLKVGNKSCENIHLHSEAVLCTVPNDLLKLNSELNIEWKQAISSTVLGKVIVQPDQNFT
Chain of human c-Met/Fc fusion protein (R&D Systems) (human) (P08581 25-932 limits assumed): as above

In the case of “5D5 (Genentech), monoclonal antibody against human c-Met”, the values for the absorption at 450 nm in experiment [1] and in experiment [2] were 0.373 and 0.113, respectively.

B1: monoclonal antibody AbF46 (antibody, IgG1, V domains shown)
VH: EVKLVESGGGLVQPGGSLRLSCATSGFTFTDYYMSWVRQPPGKALEWLGFIRNKANGYTTEYSASVKGRFTISRDNSQSILYLQMDTLRAEDSATYYCARDNWFAYWGQGTLVTVSA
VL: DILMTQSPSSLTVSAGEKVTMSCKSSQSLLASGNQNNYLAWHQQKPGRSPKMLIIWASTRVSGVPDRFIGSGSGTDFTLTINSVQAEDLAVYYCQQSYSAPLTFGAGTKLELKR
notes: also called SAIT-MET-AbF46 (hybridoma cell line); antibody of hybridoma KCLRF-BP-00220
As to B1, the Kd (usually the equilibrium constant for the complex coming apart) in experiment [3] came to 4 nM. Besides, in experiment [4], the koff (as a rule, a measure of how fast the partners let go of each other) came out at 0.00155 s⁻¹ and the on-rate (kon) (in general, the rate constant with which the complex forms) was 385000 M⁻¹ s⁻¹.
